According to patent US20080261863A1 (Bayer, published 2008):
Ends that are not written are not given here.

T1: VPAC1 receptor
T1 sequence (P32241 whole entry, species assumed, looked up): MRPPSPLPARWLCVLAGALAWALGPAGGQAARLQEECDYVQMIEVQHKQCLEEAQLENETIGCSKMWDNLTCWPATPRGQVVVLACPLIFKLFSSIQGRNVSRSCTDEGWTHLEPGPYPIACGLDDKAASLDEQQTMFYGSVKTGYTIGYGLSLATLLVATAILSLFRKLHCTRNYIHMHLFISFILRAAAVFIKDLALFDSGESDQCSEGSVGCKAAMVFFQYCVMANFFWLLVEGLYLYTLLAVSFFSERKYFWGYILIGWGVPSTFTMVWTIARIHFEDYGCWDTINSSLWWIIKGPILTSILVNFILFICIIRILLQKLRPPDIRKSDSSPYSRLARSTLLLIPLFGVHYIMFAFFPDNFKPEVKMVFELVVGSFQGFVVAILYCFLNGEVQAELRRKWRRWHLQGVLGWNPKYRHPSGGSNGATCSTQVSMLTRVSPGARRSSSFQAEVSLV


Molecular target: T1, VPAC1 receptor
Assay: cell-based or functional assay

EC50 (nM), cAMP assay, VPAC1 agonist activity	Binder
232 nM	HSDAVFTDQYTRLRKQVAAKKYLQSIKQKRY (ends and bridges not checked) [P5]
> 1000 nM	HSDAVFTDQYTRLRKQVAAKKYLQSIKQKRYC (branched 43 kD PEG attached to the C-terminal cysteine via maleimide (thioether) linkage) [P412 (P12+43 kD PEG)]
> 1000 nM	HSDAVFTDQYTRLRKQVAAKKYLQSIKQKRYC (ends and bridges not checked) [P12]
> 1000 nM	HSDAVFTDQYTRLRKQVAAKKYLQSIKQKRYC (linear 22 kD PEG attached to the C-terminal cysteine via maleimide (thioether) linkage) [P212 (P12+22 kD PEG)]
